Data: the supplement of paper PMC9170038

Tested on: K4 kissing-loop RNA reporter
Assay: apparent KD of K4 kissing-loop reporter; higher = weaker reporter binding
Conditions: Eterna round: R107
Description: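 RNA-MaP round R107: designed RNA switches with theophylline, tryptophan, arginine or FMN aptamers are transcribed on-chip within common flanks. They are titrated with a labelled K4 kissing-loop RNA reporter in RNA-MaP buffer (100 mM Tris pH 7.5, 80 mM KCl, 4 mM MgCl2), without ligand or with the indicated ligand. Median apparent KD per design.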

[1] = input ligand: theophylline 20 uM
[2] = input ligand: tryptophan 2.4 mM
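Also: bound reporter read as fluorescence of individual clusters on recovered sequencing chips by microscopy, with normalized cluster intensities fitted with a binding model.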

Sequence	apparent KD of K4 kissing-loop reporter (input ligand: FMN 200 uM) [nM]	apparent KD of K4 kissing-loop reporter (input ligand: arginine 13.2 mM) [nM]	apparent KD of K4 kissing-loop reporter (input ligand: none) [nM]	apparent KD of K4 kissing-loop reporter [1] [nM]	apparent KD of K4 kissing-loop reporter [2] [nM]
AAUAAUGAUGUUUAGGAUUUCCGAAUGGAAGGAGCGUGCGAAAGCACAGGUAGGUCGCCAGUGAUGUUGGGACCUGAGCAUCAAA [#SwitchBubble 6 #K4Late]	681	514	703	807	629
GUACCGCGUGCGGCCGCCACUACAUCAAUUACCUAAGCCUAGUGAUGUUGGGUUUUUGCUACAGGUAGGACCGGGCAGAUGUAUG [theeternabot_sameState_KL_Trp_B_38]	292	225	307	263	270
CAUGGUGCUCGCCAGUUGUGCGAACGGUGGGAGGAUAUGUCGCGAGACAGAAGGCCCAGUGAUGUUGGGCAGGCUCGUAGAUCGA [Mazadi]	158	113	129	165	127
UGGGUGUAGUGAUGUUAUAUAGAGAGUGAUACCAGCGUAGAGAGAUGCCCUUGGCAGCAUAGAAGAGUAUCAUUGGAGGAGGAGG [ExTheophyl.Az]	689	743	883	730	514
GGUCUGCCGCAGUGAUGUUGCUGGCAUACACGAGGACCGGUACGGCCGCCACUCGAUGCUCCAAGAACCACCAAUCUUCGGUAUC [theeternabot_sameState_KL_Trp_A_48]	257	235	229	236	236
AAACAUCACUGGGAGUGAUGUUCUCAGUGACGAGGACCGGUACGGCCGCCACUCGCGAGAGAUAUAGGUAAGUAAUGACAUCAUU [Excl Tryptophan A V5]	340	282	360	327	392
UGUACCGAGUCAGGAUAUCAACGACUGACAAAGUCGGUCGAAUAUCCAGUGAUGUUGGAAAAUAACUGAGAAGGGACUUGGUACU [FmnBS 13 #SwitchBubble #StaticStem]	194	629	1080	710	903
AAGUGUGUGGCGGCCGCCACUAGAAUCCAGUGAUGUUGGAGUUAUCAAAUAAAUGAUAAUCAACAUAGGACCGGGCCAUAUAGAA [Same State - Tryptophan B (Freestyle 4)]	690	430	626	523	469
UUUUUAUAAGAGGAUACCAGUACAAAUAAAGUACAUUAAUAGUAGAGUGAUGUUCUAAAGUACCCUUGGCAGCUUAGAUUAAGUU [ExTheophylB.D]	158	268	172	255	117
UUUACCAGUGAUGUUGGCCUAGUAUUUACACGAGGACCGGUACGGCCGCCACUCGCAUUAUCGGACUUUGAUAAGCAUAUUAUAU [theeternabot_sameState_KL_Trp_A_28]	317	283	318	384	199
AAUAAGGUCGCCGAUACCAGCGCAGGCAGAGCAAAGCUCUGCCAGGUAGUGAUGUUACCGCGCCCUUGGCAGCGGUGGCACGACC [Omei KL Theo B SS C v2]	523	357	516	459	579
GCGCGUCAUGUUGGCGGGAACUAAGCCGAUACCAGCCGGGAAACCGGCCCUUGGCAGCGGCGCGCCGGAGUGAUGUUCCGACAGA [#2 Exclusion - Theophylline A Attempt #1 (HarryS)]	226	246	254	284	164
AGGUAUGUCUGAAGGAGCGACUAAGAAGCAGUGAUGUUGCUAAGUAGUAAGUAGCUACGUAGUCAGGUAGGUCGCAGAUAUACCU [Arg B SS t14]	322	348	257	349	189
GGUAGCUAGGUAGGAUAUAGCUAGUGGAGUGAUGUUCCACGAUACACGAGUGAUGUUCGUACCCUGCUAGAAGGGCCUAGCUACC	114	159	168	172	161
AGGGACUCUUCGGAGUCCCGGUUAAGGGAUACCAGUGAUGUUGGUCACCCUUGGCAGCCCAGAAACCAAGCCACCAAAGGUGGCA [Omei KL Theo A Exc A v2]	150	127	133	211	121
UGAGGAGAAUAUGAUACCAGCAGAGAGAGAGAGGAAGUAUAGUGAUGUUAUAUGAGAGAAUGCCCUUGGCAGCAUAAGAAGAAGG [SSTheophylB.B]	148	121	142	129	125
ACAGGAUCGAAAGAUCCUGAGCAGUCUAACCGAGGACCGGUACGGCCGCCACUCGGAGUGAUGUUCCGAGGACUGCAAAAUAAAA [#SwitchBubble 2 #CoaxialStacking]	330	305	298	329	795
UAGCAUUUGCUCGAGUGAUGUUCGAGCGAAGGAGCGCGAGAAAUCGCAGGUAGGUCGCGCUCGAACUAUGAGCGAUCAUUUAUUA [Arg A Ex t2c]	284	217	244	463	370
GGGUGGGUGCGAGGAUAUGGAGUGAUGUUCCAAAAGAAAAGAAGAGAAGAGAAAGAGAGAAAGAAACCAGAAGGCGCGUCCGUCC	115	123	193	238	141
GUGGUACAGGCGGCCGCCACUAGUGAUGUUAGUGAUAGAAGAUAUAGUAUAUAUCGGCAUUUAGUUAGGACCGGGCCUGGUGGUG [wwwrcmullin]	424	316	360	367	337
GCCGUACGCAUGGAUACCAGUCUUUCACGACUGGGCAUGGAGUGAUGUUUCGUGAUGCUAGACCCUUGGCAGCCAUGCGUACGGC	201	163	175	184	175
GCUACCUAUGCAGGAUAUGGUAUUACGAGUGAUGUUCGAGGCAUAUAGAGUGAUGUUCUAUAUCCACCAGAAGGGCAUAGGUAGC	184	148	179	162	164

Sequence	apparent KD of K4 kissing-loop reporter (input ligand: FMN 200 uM) [nM]	apparent KD of K4 kissing-loop reporter (input ligand: arginine 13.2 mM) [nM]	apparent KD of K4 kissing-loop reporter (input ligand: none) [nM]	apparent KD of K4 kissing-loop reporter [1] [nM]	apparent KD of K4 kissing-loop reporter [2] [nM]
AGUCUCAAAAGAGGCAGCACUCACGAGGACAAGGAUAUCAUCUCAAUGAGAAGGUGUCCUCGUCCCUAGUGAUGUUAGGGAGUGC [Omei KL FMN A SS E v6]	205	265	305	682	437
UUCAGACUACUACUAGACAGUAGUAUAUACUAGGAUAUCCAGAUAUGGAGAAGGAGUGAUGUUCCCUAGUAGUAGUGAAUUAAAU [KL-XFMN-A5]	661	380	387	375	335
AACAGCAAUGCGGCCGCCACUUCGAGGUCAGUGAUGUUGACAGAAUUAAAUAAAGAUCCCAAGAGGAGGACCGGGCAGUGCUGUU [whbob_SS_Tryp_B_t24]	534	417	674	527	416
AAUUUAUAUUUAUUCUUUAAAUGUUCAGAAGGAGCGUGAAUUAUCACAGGUAGGUCGCUGGGCUAGUGAUGUUGGCUAUAUACUA [whbob_Ex_Arginine_A_2t125]	150	186	162	196	124
CGUGCCCGGCCGGAUACCAGUGACCCGCUGGGAACCGCGGGCCCAGAGUGAUGUUCGGGACACCCUUGGCAGCCGCCUGGGCUGC [#2 Same State - Theophylline B Attempt #14 (HarryS)]	540	395	757	375	415
UGACAUUGCUCAGAUACCAGUCAUGAGGAUCACCCAUGGGCCAAAACGUACUAAAUAAAUGACCCUUGGCAGCUGAGCAAUGUCU [TheoBX 13]	116	36.9	37.7	165	72
CUUACCCAUCGGAUGGAUCAACUGCACACGAAGGAUAUACACACGGGUAGAAGGUCGGGAUUCCAGUGAUGUUGGAUGGUACGAC [theeternabot_exclusion_KL_FMN_A_29]	87.2	96.5	91.3	98.7	74.2
GGAUAGGACAGAGGAUAUCUCUAAAGAGGCAAGAAAACUUGUCUCAGAGAUGACUCAGUGAUGUUGAGAGAAGGCUGUCCUAUCG [FmnBX 7 - #SwitchBubble #StaticStem]	425	161	174	168	152
UUUCUACCGGGAAGGAGCGUGAAUGAUAAUGGAUAUAGUGAUGUUAUAUAUAAGAACGAAUCGCAGGUAGGUCGCCCGGAUGACU [SSArgB.S]	311	333	352	397	310
AUACGUUUUUGUGAUACCAGACAUGUGAGUGAUGUUUACAUAUAUAUUUAAUAUUUAGCUGUCCCUUGGCAGCACUGUUUAUUUA [JR_ExcTheophyB_Sub004]	362	382	420	437	301
AUGGUUGUCGUAGGAUAUGUAGGAUAUUCCUAUAGCAGUGAUGUUGCUAAUAUCAAUGGAAGAAGGACAGAAGGACGAUAACCAC [KL-SSFMN-B3 #analogue #DoubleAptamer]	113	120	113	118	113
CUUCGUAAAGGCCCAGUGAUGUUGGGCACUCGAGGACCGGUACGGCCGCCACUCGCUCCCUAAGUCGCGCGCGUGGGCCACCGCC [Xeteoredre]	111	110	99.4	104	113
AUCAGCCUCAGAAGGAGCGUGAGUUUUAAGAGGCUGGAGUGAUGUUCCAGACAUAACGACUCACAGGUAGGUCGCUGAGACUAGU [Arg B SS t1]	132	99.8	121	98.5	114
UUCAGUGAUGUUGAACACUGUUGUAUAAACUAGGAUAUGCUGAUAAGCAGAAGGAGUGAUGUUCCGUUCAACAUCAGAAUUAAAU [#08 K4 FMN A Exclusion]	662	415	488	496	269
AUUUUUAACUGAGGAUAUCGAAUUUAUGUAGUGAUGUUACUUUAAAUUAAAAUUUUAAUUUCUUAACGAGAAGGCAGAAUAAUUA [JR_SSFMNB_Sub025]	111	194	109	204	85.4
UGUACCGAGUCAGGAUAUGGCGUCGAAAGACGAAACCAGUGAUGUUGGAAAAUCUGCGAAAGCAGUCCAGAAGGGACUUGGUACU [FmnBS 24 #SwitchBubble #StaticStem #DoubleMagnetSystem]	193	236	302	227	226
UCAUGAGAGACGGCCGCCACUGAAGCAGCUCUGUAAGAGCUGCAACAGUAGAGUGAUGUUCUGCGCAGGACCGGGUCGUCAUGAA [KL-SSTryp-B9]	513	206	398	352	450
GGGAAGAAGGCGGCCGCCACUGCAGAAGAGACAGAGAGAGAAGAAGAGGAGUGAUGUUCCAAGAACAGGACCGGGCCAAGAAGGG [whbob_SS_Tryp_B_t28]	167	84.2	102	146	129
UUCUAGCCGAAAGGCUAGUCGGCUUCAGAUACCAGUCGCGAAAGCGACCCUUGGCAGCUGUGUAGUGAUGUUGCAAAGAAAGCCG	556	435	618	262	524
GGAUAGGACAGAGGAUAUCCUGAGUCUACAAAGUAGGCUCAUAAAGGAUGAAUCCUAGUGAUGUUAGGAGAAGGCUGUCCUAUCG [FmnBX 16 - #SwitchBubble #StaticStem #Palindromic]	110	84.6	76.3	79.5	88.7
ACGUAGUUCUAGGAUACCAGCCAAGAUGCCAGGACAAAAGUCCUGGCAGCCAGUGAUGUUGGCCCUUGGCAGCCUAGAACUACGA [Omei KL Theo B Exc B v9]	149	115	132	121	120
